Results reported in patent publication US5679782A, “Oligonucleotides encloding peptide inhibitors of urokinase receptor activity” (Chiron Corporation, priority 1995, dated 1997).
Like-named read-outs stand apart in the source and are kept apart here. Peptide text beside a SMILES is read from it.

Columns and labels:
huPAR = biological target: T1, huPAR (Homo sapiens, UniProt Q03405); assay: Recovery of phage on Sf9 cells expressing full length huPAR; assay type: binding; conditions: phage displaying the sequence; Sf9 cells expressing fluPAR
T1 construct: Sf9 cells expressing full length huPAR ("fluPAR", day 2 post infection); expressed in transfected cells; host or cells: Sf9 insect cells (day 2 post infection)
Method: 1.) 15mer phage (2.5×10^10) prepared as described above were selected by coincubation with 10^6 Sf9 cells expressing full length huPAR ("fluPAR", day 2 post infection) at room temperature for 60 minutes in Grace's medium with 2% nonfat milk. Binding phage were eluted with 6M urea (pH 2.2), the pH neutralized by adding 2M Tris-HCl, and assayed. The yield of binding phage was 0.0013% (3.3×10^5 pfu). The phage were amplified on solid agar plates as plaques, eluted with Tris-buffered saline, and precipitated with polyethylene glycol.
(§1) 3.) The phage selected in round 2 were reselected on Sf9 cells expressing fluPAR (day 2 post-infection) as described for round 1 (2.8×10^10 phage on 10^6 Sf9 cells). The yield of binding phage from this round was 5.40% (1.5×10^9 pfu), indicating a substantial enrichment in binding phage. Sample phage from the urea eluate were cloned, and their DNAs isolated and sequenced. Binding was assayed against Sf9 cells expressing fluPAR, and Sf9 cells expressing substance P receptor ("SPR," as a control).

[1] = biological target: T2, substance P receptor (SPR) (Homo sapiens, UniProt P25103); assay: Recovery of phage on Sf9 cells expressing substance P receptor (control); assay type: binding; conditions: phage displaying the sequence
T2 construct: expressed in transfected cells; host or cells: Sf9 insect cells
Method: as §1

human urokinase receptor = biological target: T3, human urokinase receptor (Homo sapiens, UniProt Q03405); assay: Competition of 125I-ATF binding to immobilized soluble recombinant human urokinase receptor; conditions: read-out: Affinity
T3 construct: expressed as a truncated, soluble molecule as described previously for mouse L-cells (Masucci et al., J Biol Chem (1991) 266:8655); made in house; host or cells: baculovirus / insect cells
Source text: 4.) The peptides encoded by 25 phage were then synthesized by solid phase peptide chemistry on an Applied Biosystems Model 430A peptide synthesizer,using Boc chemistry, or were obtained from Chiron Mimotopes, Ltd., as soluble peptides. All peptides contained the Ala-Glu dipeptide at the amino terminus and were amidated at the carboxy terminus.
Baculovirus-derived recombinant human urokinase receptor was expressed as a truncated, soluble molecule as described previously for mouse L-cells (Masucci et al., J Biol Chem (1991) 266:8655). The purified receptor was biotinylated with NHS-biotin, and immobilized at 1 μg/mL in PBS/0.1% BSA on streptavidin coated 96-well plates. Human uPA ATF (residues 1-135, obtained from M. Shuman, University of California, San Francisco) was iodinated using the Iodogen method (Pierce), and used as tracer. The ^125 I-ATF was incubated at 100-500 pM with increasing amounts of peptide from 1 nM to 10 μM in triplicate for 2 hours at room temperature in 0.1% BSA/PBS in a total volume of 200 μL. The plates were then washed 3 times with PBS/BSA, and the remaining bound radioactivity determined.
*Assay performed at 100 pM ATF, 0.3 μg/ml suPAR in 200 μL. Other
assays are corrected to these conditions; corrections are about 3 ×
from previous assay conditions.

uPAR = uPAR (Homo sapiens, UniProt Q03405); conditions: Appella et al. 1987; cited from earlier work
[2] = unstarred values: corrected to 100 pM ATF, 0.3 μg/ml suPAR, corrections about 3 × from previous assay conditions

T3 sequence (Q03405 23-299 limits assumed): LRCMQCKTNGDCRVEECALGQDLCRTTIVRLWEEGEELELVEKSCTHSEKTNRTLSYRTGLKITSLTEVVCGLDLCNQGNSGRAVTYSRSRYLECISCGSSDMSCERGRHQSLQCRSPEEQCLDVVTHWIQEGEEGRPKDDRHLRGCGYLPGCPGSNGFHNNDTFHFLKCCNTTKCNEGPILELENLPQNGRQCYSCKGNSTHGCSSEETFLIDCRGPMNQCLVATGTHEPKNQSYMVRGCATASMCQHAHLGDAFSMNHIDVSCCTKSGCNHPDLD
T2 sequence (P25103 whole entry, species assumed): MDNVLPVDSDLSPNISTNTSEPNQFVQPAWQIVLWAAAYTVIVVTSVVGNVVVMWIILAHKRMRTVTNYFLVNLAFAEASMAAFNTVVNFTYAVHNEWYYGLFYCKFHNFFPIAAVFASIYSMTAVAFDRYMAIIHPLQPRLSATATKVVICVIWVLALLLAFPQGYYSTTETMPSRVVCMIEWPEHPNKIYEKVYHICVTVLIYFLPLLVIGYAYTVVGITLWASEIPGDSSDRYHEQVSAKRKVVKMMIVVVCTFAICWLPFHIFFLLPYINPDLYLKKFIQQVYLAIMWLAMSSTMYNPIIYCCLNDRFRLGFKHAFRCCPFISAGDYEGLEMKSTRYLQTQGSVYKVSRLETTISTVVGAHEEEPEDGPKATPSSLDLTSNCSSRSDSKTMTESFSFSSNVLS
Chain of uPAR (Q03405 23-335, species assumed): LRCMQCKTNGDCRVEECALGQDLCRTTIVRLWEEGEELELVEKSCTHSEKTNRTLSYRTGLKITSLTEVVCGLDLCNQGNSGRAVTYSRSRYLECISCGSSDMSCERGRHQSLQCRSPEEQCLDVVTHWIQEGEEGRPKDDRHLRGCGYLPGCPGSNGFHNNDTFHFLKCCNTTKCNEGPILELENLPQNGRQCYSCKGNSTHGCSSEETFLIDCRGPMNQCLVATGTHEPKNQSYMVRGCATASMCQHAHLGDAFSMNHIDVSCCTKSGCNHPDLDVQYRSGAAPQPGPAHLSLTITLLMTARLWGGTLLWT
T1 sequence (Q03405 23-335): as the sequence (Q03405 23-335, species assumed) above

## 37 (AECLNGGTAVSNKYFSNIHWCN) [compound 37]
huPAR
  % Recovery huPAR: 6.8%
[1]
  % Recovery SPR: 0.008%

## CC(C)C[C@H](NC(=O)CNC(=O)[C@@H]1CCCN1C(=O)[C@H](Cc1c[nH]cn1)NC(=O)[C@H](Cc1c[nH]c2ccccc12)NC(=O)[C@H](CCC(=O)O)NC(=O)[C@H](C)N)C(=O)N[C@@H](CO)C(=O)N[C@@H](Cc1ccccc1)C(=O)NCC(=O)N[C@@H](CO)C(=O)N[C@@H](Cc1ccc(O)cc1)C(=O)N[C@@H](CC(C)C)C(=O)N[C@@H](Cc1c[nH]c2ccccc12)C(=O)N[C@@H](CO)C(=O)N[C@@H](CCCCN)C(=O)N[C@H](C(N)=O)[C@@H](C)O [compound 2] (H-AEWHPGLSFGSYLWSKT-NH2)
Human urokinase receptor; [2]
  Kd: 0.35 µM

## CSCC[C@H](NC(=O)[C@@H](NC(=O)[C@H](CC(N)=O)NC(=O)[C@H](CO)NC(=O)[C@H](CC(C)C)NC(=O)[C@H](Cc1ccccc1)NC(=O)[C@H](Cc1c[nH]c2ccccc12)NC(=O)[C@H](C)NC(=O)[C@H](CCC(=O)O)NC(=O)[C@H](C)N)[C@@H](C)O)C(=O)N[C@@H](CCCCN)C(=O)N[C@@H](C)C(=O)N[C@@H](CC(C)C)C(=O)N[C@@H](CO)C(=O)N[C@@H](C)C(=O)N[C@@H](CCCNC(=N)N)C(=O)N[C@@H](CC(C)C)C(N)=O [compound 13] (H-AEAWFLSNTMKALSARL-NH2)
Human urokinase receptor; [2]
  Kd: 5 µM

## CC(C)C[C@H](NC(=O)[C@H](CCCNC(=N)N)NC(=O)[C@H](CC(C)C)NC(=O)[C@@H]1CCCN1C(=O)[C@H](Cc1ccccc1)NC(=O)[C@H](CCC(N)=O)NC(=O)[C@H](Cc1ccc(O)cc1)NC(=O)[C@H](CC(C)C)NC(=O)[C@H](CCC(N)=O)NC(=O)[C@H](Cc1c[nH]c2ccccc12)NC(=O)[C@H](CC(C)C)NC(=O)[C@@H](NC(=O)[C@@H]1CCCN1C(=O)[C@H](CCC(=O)O)NC(=O)[C@H](C)N)[C@@H](C)O)C(=O)N[C@@H](CO)C(=O)NCC(N)=O [compound 14] (H-AEPTLWQLYQFPLRLSG-NH2)
Human urokinase receptor; starred values: assay performed at 100 pM ATF, 0.3 μg/ml suPAR in 200 μL
  Kd: 4 µM

## uPA12-32: The critical domain alone, residues 12-32 of uPA EGF-like domain (DCLNGGTCVSNKYFSNIHWCN; UniProt P00749 32-52, looked up, fragment)
uPAR
  affinity fold less than intact ATF: about 100 fold
